According to the supplement of paper PMC9942255:
Several values for one entry are separate records, joined by “and”; a condition that tells them apart may be missing. Equal entries are not always repeated.

Tested on: Bacillus subtilis DB104 (SP-AmyQ fusion secretion)
Experiment: AmyQ secretion efficiency, weighted average sort bin (1 = best secretion, 10 = worst) (bin number (weighted average, 1-10)); higher = lower secretion efficiency
Summary of the method: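 The secretion score gives the average bin number weighted by read frequency and normalised to beads per bin, with low-abundance sequences excluded. Bins were 10 equally populated green/red fluorescence ratio fractions of occupied ~65 nL alginate beads, sorted by large-particle flow cytometry. The beads held fluorescein-starch and about 0.3 cells each of an amyE-integrated B. subtilis DB104 library fusing designed signal peptides to mature AmyQ, and they were grown about 13 h at room temperature and stained with nile red before sorting and Illumina sequencing.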

| Sequence | AmyQ secretion efficiency |
| --- | --- |
| MAIIIAIIAAVIVIAALITFNVCNASPG | 7.28 |
| MKSCKQLIVCSLAAILLLIPSVSFGADS | 3.57 |
| MGLGKKLSVAVAASFMSLSISLPGVQAAPR | 2.88 |
| MNKPTKLFSTLALAAGMTRRKKRKAGTIHAQQP | 6.79 |
| MKKKLAAGLTASAIVGTTLVVFTAEAATI | 5.8 |
| MKKKRKKGGTGSAIVGTTLVVTPAEAATI | 7.88 |
| MKKRLIGFLVLVPALIMSGITLLEANKK | 6.63 |
| MFNRLFRVCFLAALIMAFTLPNSFYAQKP | 6.02 |
| MKKWLIIAVSLAIAIVLFMSVSFFAKAAGM | 5.66 |
| MRKRTKTSLLLAGLCTAAQMVFVTHASAEES | 3.51 |
| MPTKKKVMKCLAVTLVFGSMSFPTLTNSGGFKE | 7.16 |
| MNLRKIILLSSALSLGMLVSAAPVLATSS | 2.82 |
| MKNMSCKLVVSVTLFFSFLKRRPLAHAQNS | 8.2 |
| MKLKKRVSYFLVALTMCGGLFVTPAKAVKT | 6.42 |
| MKKRLIAPMLLSAASLAFFAMSGSSGAAGPSPAAQAAAY | 4.83 |
| MLCVMMLLFSAIASFPVSAQQKDQ | 6.18 |
| MFNRLFRVCFLAALIMAFTLPNSVYEQKP | 7.29 |
| MKKVLMAFIICLSLILSVLAAPPSGKKAESV | 8.34 |
| MRMLWRSLALCGLALTLAPCAQIAEP | 6.42 |
| MRFTKVVGFLSVLGLAAEDEEEEAQAEKA | 7.84 |
| MAIIIAIIAAVIVIAALITFNVGTPRNASPG | 8.5 |
| MKRIRIPMTLALGAALTIAPLSFASCEEN | 4.65 |
| MRSYIKVLTMCFLGLILFVPALADNS | 6.75 |
| MKKWMITIAMLILAGIALFVFISPSKSHKT | 6.65 |
| MKSKWMRQKRLVAVGFSFTQVMVHAGET | 8.54 |
| MMKCVICLSLLVFGTTAAHAEET | 3.1 |

| Sequence | AmyQ secretion efficiency |
| --- | --- |
| MPYLKRVLLLLVTGLFMSLFAVTATHSAQTG | 6.96 |
| MKKRLIGFLVLVPALIMSGITLGEANKK | 6.8 |
| MKLKSKYKGGCYAAAAIFTAAGVSANAEALDF | 7.31 |
| MFKKHTISLLIIFLLASAVLAKPIEGHTV | 3.78 |
| MIAYFGKCRKRRKRMFLGVLFGMQQANHG | 7.55 |
| MKLRKSTKYQSYSLGLLVSASPAFATSP | 6.69 |
| MGKWYYVVLVLSIAGIGGFSVHAASS | 7.3 |
| MRKNRILALFVLSLGLLSFMVTPCSAASK | 2.01 |
| MKKKQVMLALTAAAGLGLTAHSAPAAKAAPL | 2.01 |
| MPYLKRVLLLLVTGLFMSLFAVTATASARRR | 7.69 |
| MRKVVGFLSVLGLAAVFPLTAQAEKA | 2.03 |
| MRMLWRSLALCGLALTLAPCAQWAEP | 5.9 |
| MGMKKKLSLGVASAALGLALVGGGTWFAFN | 7.33 |
| MMKKQVMLALTAAAGLGLTALHSAPAAKAAPL | 2.65 |
| MTKKAWFLPLVCVLLISGWLAPAASASPQTT | 2.48 |
| MRKNRLLLNILALFVLSLGLLSFMVTPVSAASK | 1.08 |
| MRSYIKVLTMCFLGLPTALADNS | 3.96 |
| MKVPKTMLLSTAAGLLLSLTATSKSAHYV | 6.37 |
| MMSLLVSLRVWMVFLMNWVTPDRKTAAAAVY | 5.61 |
| MNLRKILLSSALSLGMLPSAAPVLATSS | 2.71 |
| MKWMCSICCAAVLLAGGANQAEAV | 2.83 |
| MKLAKRVSALTPSTTLAITAKAAPD | 7.89 |
| MHLIRAAGAVCLAVVLIAGCRFNEDQHQFFAEGENT | 4.63 |
| MSTGILAAGLTASAIVGTTLVVTPAEAATI | 4.73 |
| MKLKKRVSMFLVALTMCGGLFVTPAKAVPR | 1.68 |
| MNLRKILLSSALSLGMLVSAAPVLGTSS | 4.45 |

| Sequence | AmyQ secretion efficiency |
| --- | --- |
| MKQGKFVFLILLLMLTLVVAPKEKAEAASS | 1.74 |
| MKRLLILLLIIIMLLGGTTFAPSAFAKQD | 2 |
| MRKKRTVITCVMAASLTLGSLLPAGYATAKED | 6.07 |
| MMIKQCVICLSLLVFGTRRKAHAEET | 7.59 |
| MLKKVILAAFILVGSTLGRRKRKSRASAKHV | 5.28 |
| MFNRLFRVCRRAALIMAFTLPNSVYAQKP | 4.23 |
| MKKAFLVFLSVVLVTTVFLVKQQESVAQKKQL | 4.43 |
| MAIIIAIIAAVIVIAALITFNVRNHSPG | 6.69 |
| MKRFSTAYLLLGILCSAAVFLIGAPSRALNAEV | 5.97 |
| MKKRLIAPMLLSAASLAFFAMSGSGQAAAY | 5.16 |
| MKRIRIPMTLRKKRALTIAPLSFASAEEN | 7.44 |
| MSKLIMALVILGALGTSYISADSS | 7.07 |
| MKRKLLSSLAISASAPTASFAAES | 7.94 |
| MKKKNSISSLNMLAAGLTASAIVGTTLVVTPAEAATI | 2.17 |
| MNLRKIRKKRALSLGMLVSAAPVLATSS | 7.46 |
| MGSGTSMLFSTLALAAGMTAAAAGGAGTIHAQQP | 2.01 |
| MKKIWIGMLAAAVLLLSVFAMVPKVSLADAA | 4.61 |
| MRSYIKVLTMCFLGLILFVPTALNDNS | 6.3 |
| MKRIRIPMTLALGAALTIAPLSFASLEEN | 6.43 |
| MKKKQVSHAIIISVMLSFVIAVFHTIHKSELTP | 4.63 |
| MKKRKRRFLLVSFVLFFALSTGITGVQAAPA | 2.95 |
| MGLGKKLSVAVAASFMSLSPGVQAAEG | 1.73 |
| MKKAAAVLLSLGLVFGFSYGAGHVVEAKTK | 2.99 |
| MKRFLIGAGVAAVILSGWFIADHQTHKQEM | 4.69 |
| MNKPTKLKKKKALAAGMTAAAAGGAGTIHAQQP | 8.12 |
| MKLSVKIAGVLTVAAAAMTAKMYHTAKGN | 6.87 |

| Sequence | AmyQ secretion efficiency |
| --- | --- |
| MYGKIALTLCPAIVGSLLFFTAPASAHVS | 2.26 |
| MRMLWRSLALCGLALTLAPCAQAATP | 2.06 |
| MRPVFPLILSAVLFLSCFFGARQTEVSASKR | 2.58 |
| MKLAKRVSALTPSTTLAITFKAKEL | 6.49 |
| MRNLTKTSLLLAGLCTAAQMVFVTHHSAEES | 4.26 |
| MKRFSTAYLLLLGILCSAAVFLIGAPSRALGAEV | 3.05 |
| MFKKHTISLLIIFLLASAVLAKPLEAHTV | 2.46 |
| MKKAFLVFLSVVLVTTVFLVKQQESVPQAKQL | 7.73 |
| MKLSVKIAGVLTVAAAAMTAKMYVTAKGN | 8.14 |
| MKKLLSTAAGLLLSLTATSVSAHYV | 4.36 |
| MKKWMAGLFLAAAVLLCLMVPQQMQGASS | 5.46 |
| MFKKHTRKRKIIFLLASAVLAKPIEAHTV | 7.04 |
| MPIKKKVMMCLAVTLVFGSMSFPTLTNATSGGFKE | 2.8 |
| MRRRTDYKKQVVGILLSLAFVLFVFSFSERHE | 6.74 |
| MKKRFSLIMMTGLLFGLTSPAFAAPE | 3.06 |
| MKRLCLWFTVFSLFLVLLPGKALYAVD | 4.11 |
| MLTKRLLTIYIMLLGLILAWFPGAAQAEEK | 2.09 |
| MKKAFLVFLSVVLVTTVFLSKQQESVAQAKQL | 1.98 |
| MRSYIKVLTMCFLGLILFVPTALMDNS | 6.46 |
| MQRKRLLTIYIMLLGLIAWFPGAAQAEEK | 1.93 |
| MKKTIMSFVAVAALSTTAFGAHSSAKEI | 3.37 |
| MRKKRVKRCKKKRSLTLGSLLPAGYASAKED | 7.22 |
| MKLAKRVSALTPSTTLAITRKAKEL | 7.25 |
| MNLRKILLSSALSLGMLVSAAPVLYTSS | 7.31 |
| MGTTIIILLLAVIIAAAAAGVAFYV | 7.47 |
| MFLFQVSHAIIISVMLSFVIAVFHTIHASELTP | 6.77 |

| Sequence | AmyQ secretion efficiency |
| --- | --- |
| MRSYIKVLTMCFLGLILFVPTTLADNS | 1.67 |
| MKRMIVRMTTPLLIVCLAFSSFSASARAASE | 2.03 |
| MRKYTVIASILLSFLSVLRGGHHRSKAFPV | 7.77 |
| MKKRKRKTLVVLFTIVTFGLVSPPAALMADKP | 2.34 |
| MKKRFFGPIILAFILFAGAIKIPS | 5.25 |
| MKKWLKKKRKKAIAIVLFMYTKGEAKAAGM | 7.14 |
| MKVCQKSIVRSTTRQRIGTFVISVPFMANAQSD | 7.4 |
| MKSKWQRKRRSGLLLVAVGFSFTQVMVHAGET | 6.49 |
| MPIKKKVMMCLAVTLVFGSMSFPTLTNVGGFKE | 5.79 |
| MKLSVKIAGVLTVAAAAMTAKMYATGKGN | 6.84 |
| MKSKWMSGLLLVAVGFSFTQVMVHLGET | 7.17 |
| MPYLKRVLLLLVTGLFMSLFAVTATASIQTG | 1.67 |
| MKNMSCKLVVSVTLFFSFLTIGPLTHAQNS | 1.52 |
| MRFTKVVGFLSVLGLAAVFPLTAQARKR | 7.26 |
| MKKWMAGLFLAAAVLLCLMVPQQVQGASS | 3.15 |
| MKVLLSALLLLLFALVALSFEPSASGKKL | 3.74 |
| MLKKKWMVGLLAGCLAAGGFSYNAFYTEN | 6.38 |
| MKKKLAAGLTASAIVGTTLVVTPAERATI | 5.86 |
| MRPVFPLILSAVLFLSCFFGARQTEASFSKR | 2.95 |
| MLKKKWMVGLLAGCLAAGGFSYNAFCTEN | 6.56 |
| MKKIVSILFMFGLVMGFSQFQPSTVFAASD | 1.84 |
| MLKKIALTLCPAIVGSLLFFTAPASAHEE | 2.4 |
| MIAYFGKCLLLVTIMFLGVLFGMQQANHG | 6.54 and 6.99 and 8.58 |
| MRMLWRSLALCGLALTLAPCAQVAEP | 6.05 |
